In publication PMC3327674, “Structural and Functional Characterization of Mature Forms of Metalloprotease E495 from Arctic Sea-Ice Bacterium Pseudoalteromonas sp. SM495” (PLoS ONE, 2012):

Assays:
[1] = target: GST-fused PPC2 domain of metalloprotease E495 (Pseudoalteromonas sp. SM495); test: pull-down; GST-fused PPC domain (or mutant) attached to glutathione-agarose resin; 0.1 mg/ml CPC or casein added, 4°C, 12 h with shaking; substrate remaining in the supernatant analysed by 12.5% SDS-PAGE and ImageJ
[2] = target: GST-fused PPC12 (PPC1 and PPC2 domains) of metalloprotease E495 (Pseudoalteromonas sp. SM495); test: as above
[3] = target: GST-fused PPC1 domain of metalloprotease E495 (Pseudoalteromonas sp. SM495); test: as above
[4] = target: alpha casein
[5] = target: C-phycocyanin (Synechocystis sp. strain PCC6803) (UniProt Q54715); test: SPR; BIACORE 3000, 25°C; CPC amine-coupled on a CM5 chip; PPC domains 0.25-8 µM at 30 µl/min; regeneration with 20 mM NaOH; global fits, BIAevaluation 4.1
Sequence of C-phycocyanin (Synechocystis sp. strain PCC6803) (Q54715 whole entry, chain 1 of 2, other chains not shown, the tested form may be a part): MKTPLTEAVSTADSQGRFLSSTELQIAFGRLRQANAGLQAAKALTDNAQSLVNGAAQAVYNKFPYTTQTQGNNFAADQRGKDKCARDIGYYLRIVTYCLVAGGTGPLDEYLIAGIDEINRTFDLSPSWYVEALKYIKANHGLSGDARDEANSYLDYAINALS

percent bound [1] | percent bound [2] | percent bound [3] | K m of α-casein hydrolysis at 50°C (non-linear fit, Michaelis-Menten) [4] | Kd [5] | koff [5] | kon [5] | Substance
30% | 30% | 30% | – | – | – | – | C-phycocyanin (from UniProt Q54715 1-162; Q54714 1-172) (complex)
– | – | – | 0.067 mM | – | – | – | E495-M (mature form of metalloprotease E495 containing only the catalytic domain) (enzyme)
– | – | – | 0.018 mM | – | – | – | E495-M-C1 (mature form of metalloprotease E495 containing the catalytic domain and the PPC1 domain) (enzyme)
– | – | – | – | 770 nM | 0.0158 s⁻¹ | 20400 M⁻¹ s⁻¹ | GST-fused PPC1 domain of metalloprotease E495 (domain or fragment)
– | – | – | – | 2470 nM | 0.0162 s⁻¹ | 6560 M⁻¹ s⁻¹ | GST-fused PPC2 domain of metalloprotease E495 (domain or fragment)
30% | 30% | 30% | – | – | – | – | alpha casein (natural protein)
